Test results from EP4790069A1 (Kyoto University, dated 2026).

Columns and labels:
mouse CD153 = molecular target: T1, mouse CD153 (mouse, UniProt P32972 1-239); assay: flow cytometry on EL4 cells stably expressing mouse CD153
T1 construct: whole, on cells; also called mCD153
T1 sequence (looked up): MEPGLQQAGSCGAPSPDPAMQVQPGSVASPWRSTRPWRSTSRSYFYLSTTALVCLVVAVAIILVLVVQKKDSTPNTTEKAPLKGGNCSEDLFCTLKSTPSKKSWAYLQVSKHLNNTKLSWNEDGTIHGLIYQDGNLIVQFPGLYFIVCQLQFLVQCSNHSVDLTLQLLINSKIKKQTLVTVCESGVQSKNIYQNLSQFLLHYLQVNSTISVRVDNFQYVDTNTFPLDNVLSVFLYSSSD

human CD153 = molecular target: T2, human CD153 (human, UniProt P32971 1-234); assay: flow cytometry, hybridoma supernatant on 293H cells expressing hCD153
T2 construct: whole, on cells; also called hCD153; CD30L
T2 sequence (looked up): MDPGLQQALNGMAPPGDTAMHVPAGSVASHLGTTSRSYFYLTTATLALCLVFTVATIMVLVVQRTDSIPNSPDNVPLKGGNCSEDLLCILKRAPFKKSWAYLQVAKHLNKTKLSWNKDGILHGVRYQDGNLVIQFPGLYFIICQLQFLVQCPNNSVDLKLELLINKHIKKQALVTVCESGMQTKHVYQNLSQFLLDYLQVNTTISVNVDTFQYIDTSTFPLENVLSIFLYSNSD

- binding result (human CD153): binds
B1: anti-human CD153 monoclonal antibody 2H7-9 (antibody, V domains shown)
VH: RVQLQQSGAELVRPGTSVKISCKASGYAFTNYWLGWVKQRPGHGLEWIGDIYPGNYNSYSNEKFKGKATLTADESSSTAYMQLSSLTSEDSAVYFCARIYGNYWIFDVWGAGTTVTVSS
VL: QIVLTQSPAIMSASPGEKVTMTCSASSSVNYMHWFQQKPGTSPKLWIYSTSDLASGVPARFSGSGSGTSYSLTISRMEAEDAATYYCQQRSSYPLTFGAGTKLELK
notes: Mouse hybridoma antibody (CD153-KO B6 mouse), purified with Protein A and detected with anti-mouse IgG
- binding result (mouse CD153): no binding (tested: 160 µg/ml to 0.00977 µg/ml)
